Experimental findings from PMC6868365 (Nucleic Acids Research, 2019) are described below.

Positions count from the first letter of the chain named.

The target of assay [1] is T1, DnaA L290A (Escherichia coli, UniProt P03004 1-467, L290A).
T1 sequence (looked up): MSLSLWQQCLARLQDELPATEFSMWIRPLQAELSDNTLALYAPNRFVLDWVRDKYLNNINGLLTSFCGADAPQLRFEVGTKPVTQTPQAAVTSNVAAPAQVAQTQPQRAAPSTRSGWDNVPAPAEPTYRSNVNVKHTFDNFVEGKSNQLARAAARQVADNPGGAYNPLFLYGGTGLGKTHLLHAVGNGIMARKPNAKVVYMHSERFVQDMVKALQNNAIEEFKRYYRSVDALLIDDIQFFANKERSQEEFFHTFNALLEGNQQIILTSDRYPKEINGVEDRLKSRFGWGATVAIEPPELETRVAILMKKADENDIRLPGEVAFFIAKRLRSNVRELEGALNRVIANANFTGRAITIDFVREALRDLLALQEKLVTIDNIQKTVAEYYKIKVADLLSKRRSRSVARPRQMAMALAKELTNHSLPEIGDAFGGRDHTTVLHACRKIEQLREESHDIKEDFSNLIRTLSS
As to the kind of experiment: native gel or EMSA.

Assay [2] has as its target T2, DnaA Q208A (Escherichia coli, UniProt P03004 1-467, Q208A).
T2 sequence (looked up): T1 sequence (looked up) with Q208A, A290L
In words: native gel or EMSA.

B1: DiaA (DnaA initiator-associating protein) (natural protein, Escherichia coli, UniProt P66817 1-196, looked up)
chain: MQERIKACFTESIQTQIAAAEALPDAISRAAMTLVQSLLNGNKILCCGNGTSAANAQHFAASMINRFETERPSLPAIALNTDNVVLTAIANDRLHDEVYAKQVRALGHAGDVLLAISTRGNSRDIVKAVEAAVTRDMTIVALTGYDGGELAGLLGPQDVEIRIPSHRSARIQEMHMLTVNCLCDLIDNTLFPHQDD
Take B1: the binding result in assay [1] and in assay [2] was “binds” throughout.
